Measurements taken from paper PMC3743106 (Extremophiles : life under extreme conditions, 2013).
Where “and” joins values, the source holds several entries; their conditions need not be identical. Identical values can stand only once. Blank lines part the entries; values can stand above or below the molecule they belong to.

What was measured:
[1] = target: Thermococcus kodakarensis replication factor C large subunit (Thermococcus kodakarensis) (UniProt Q5JHP1); experiment: SEC
SEC = target: the molecule itself; experiment: SEC

Thermococcus kodakarensis replication factor C large subunit (Thermococcus kodakarensis), sequence (Q5JHP1 whole entry): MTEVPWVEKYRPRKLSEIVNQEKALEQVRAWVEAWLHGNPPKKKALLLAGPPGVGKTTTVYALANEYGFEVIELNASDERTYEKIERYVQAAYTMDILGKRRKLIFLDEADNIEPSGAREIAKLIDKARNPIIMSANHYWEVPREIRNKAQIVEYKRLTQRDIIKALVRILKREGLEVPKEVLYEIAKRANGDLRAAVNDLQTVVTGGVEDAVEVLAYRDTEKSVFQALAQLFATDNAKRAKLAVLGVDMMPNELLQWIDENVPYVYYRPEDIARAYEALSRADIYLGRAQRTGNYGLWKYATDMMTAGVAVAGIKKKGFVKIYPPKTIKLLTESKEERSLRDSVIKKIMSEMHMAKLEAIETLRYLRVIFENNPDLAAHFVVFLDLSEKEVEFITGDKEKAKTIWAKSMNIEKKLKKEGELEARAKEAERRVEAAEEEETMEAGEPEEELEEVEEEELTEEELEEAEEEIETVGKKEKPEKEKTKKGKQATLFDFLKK

- stoichiometry N [1]: 4
Molecule: Thermococcus kodakarensis replication factor C small subunit (natural protein)

B1: Thermococcus kodakarensis PCNA1 (proliferating cell nuclear antigen 1, encoded by TK0535) (natural protein, UniProt Q5JF32 1-249, looked up)
chain: MPFEVVFDGAKEFADLIATASNLIDEAAFKFTEEGISMRAMDPSRVVLIDLNLPESIFSKYEVEEPETIGINMDQFKKILKRGKAKDTLILRKGDENFLEITFEGTAKRTFRLPLIDVEELELELPELPFTAKVVLLGEVLKEGIKDASLVSDAIKFIAKENEFTMKAEGETNEVEIRLTLEDEGLLDLEVEEETKSAYGIRYLSDMVKGIGKADEVILRFGNEMPLQMEYMIRDEGRLTFLLAPRVEE
- stoichiometry N (SEC): 2 and 3

B2: Thermococcus kodakarensis PCNA2 (proliferating cell nuclear antigen 2, encoded by TK0582) (natural protein, UniProt Q5JFD3 1-253, looked up)
chain: MTFEIVFDSAREFESLIATLEKFFDEAVFQVNMEGIQMRAIDPSRVVLVDLNLPEMLFSKYSVESEEAIAFDLKRFLKVLKLARSRDTLVLRKGGENFLEVGLLGDENTWFKLPLIDANTPEIEIPSLPWTVKAVVLAGALKRAVKAAKLVSDSIYFMATPEKLTFKAEGNDSEVRTVLTMEDPGLLDLEHKMTKAKSAYGVAYLEDILRSLADADEVIIRFGFDIPLLLKYMVRDAGEVSFLIAPRVEEGRS
- stoichiometry N (SEC): 3 and 6
